What was measured:
[1] = tested on: GST-SAP-RG (rat); experiment: on-bead pull-down; conditions: Hill 2.5; 100 ng pBS/FTZ, 10 mM Mg2+; unit implied by comparison; EMSA: 35 mM Tris-HCl pH 8.0, 72 mM KCl, 5 mM MgCl2, 5 mM DTT, 5 mM spermidine, 50 ug/ml BSA, 37 C; on-bead: 50 mM Tris-HCl pH 8.0, 120 mM KCl, 10 mM MgCl2 …
[2] = tested on: GST-SAP (rat); experiment: on-bead pull-down; conditions: Hill 4.6, 100 ng pBS/FTZ, 2 ul beads, 10 mM Mg2+, EMSA: 35 mM Tris-HCl pH 8.0, 72 mM KCl, 5 mM MgCl2, 5 mM DTT, 5 mM spermidine, 50 ug/ml BSA, 37 C, on-bead: 50 mM Tris-HCl pH 8.0, 120 mM KCl, 10 mM MgCl2 …
[3] = tested on: GST-RG (rat); experiment: on-bead pull-down; conditions: Hill 1.8, 100 ng pBS/FTZ, 2 ul beads, 10 mM Mg2+, EMSA: 35 mM Tris-HCl pH 8.0, 72 mM KCl, 5 mM MgCl2, 5 mM DTT, 5 mM spermidine, 50 ug/ml BSA, 37 C, on-bead: 50 mM Tris-HCl pH 8.0, 120 mM KCl, 10 mM MgCl2 …
[4] = tested on: hnRNP U ΔSAP (rat); experiment: EMSA; conditions: C50, competitive with equimolar vector, 5 mM Mg2+, 10 mM MgCl2 in gel, EMSA: 35 mM Tris-HCl pH 8.0, 72 mM KCl, 5 mM MgCl2, 5 mM DTT, 5 mM spermidine, 50 ug/ml BSA, 37 C, on-bead: 50 mM Tris-HCl pH 8.0, 120 mM KCl
[5] = tested on: hnRNP U WT (SP120) (rat); experiment: EMSA; conditions: C50, competitive with equimolar vector, 5 mM Mg2+, 10 mM MgCl2 in gel, EMSA: 35 mM Tris-HCl pH 8.0, 72 mM KCl, 5 mM MgCl2, 5 mM DTT, 5 mM spermidine, 50 ug/ml BSA, 37 C, on-bead: 50 mM Tris-HCl pH 8.0, 120 mM KCl

FTZ S/MAR insert
Kd (pmol (on beads)) [1]: 6.7 | half-saturation protein amount (pmol (on beads)) [2]: 22.5 | half-saturation protein amount (pmol (on beads)) [3]: 13 | K half [4]: 32 nM | K half [5]: 14 nM
